Values of other authors in patent publication US11419917B2, “Treatment for SARS-CoV-2 and other coronaviruses” (priority 2020, dated 2022).
Entries after “also recorded” stand apart in the source; their conditions may differ. Like-named read-outs stand apart in the source and are kept apart here.

What was measured:
[1] = in vivo
[2] = patients treated for 3 days compared to placebo

## BNP: B-type natriuretic peptide, a 32-amino acid peptide; generic name Nesiritide
[1]
  half-life: 22 min
[1]; listed as B-type NP
  half-life: 20 min

## CC[C@H](C)[C@@H]1NC(=O)[C@H](CCCNC(=N)N)NC(=O)[C@H](CC(=O)O)NC(=O)[C@H](CCSC)NC(=O)[C@H](CCCNC(=N)N)NC(=O)CNC(=O)CNC(=O)[C@H](Cc2ccccc2)NC(=O)[C@@H](NC(=O)[C@H](CO)NC(=O)[C@H](CO)NC(=O)[C@H](CCCNC(=N)N)NC(=O)[C@H](CCCNC(=N)N)NC(=O)[C@H](CC(C)C)NC(=O)[C@@H](N)CO)CSSC[C@@H](C(=O)N[C@@H](CC(N)=O)C(=O)N[C@@H](CO)C(=O)N[C@@H](Cc2ccccc2)C(=O)N[C@@H](CCCNC(=N)N)C(=O)N[C@@H](Cc2ccc(O)cc2)C(=O)O)NC(=O)CNC(=O)[C@H](CC(C)C)NC(=O)CNC(=O)[C@H](CO)NC(=O)[C@H](CCC(N)=O)NC(=O)[C@H](C)NC(=O)CNC1=O [Carperitide]
[2]
  decrease in infarct size: ~15%

## ANP: A-type natriuretic peptide, a 28-amino acid peptide degraded from pro ANP
[1]
  half-life: approximately 10 minutes; also recorded: several
